Reference: patent US20220227829A1 (SHANGHAI GP BIOTECH, published 2022)

Columns and labels:
[1] = biological target: T1, CD25 on the surface of NK92 cells (human NK cell line) (human, UniProt P01589 22-272); assay: cell-based or functional assay
T1 sequence (looked up): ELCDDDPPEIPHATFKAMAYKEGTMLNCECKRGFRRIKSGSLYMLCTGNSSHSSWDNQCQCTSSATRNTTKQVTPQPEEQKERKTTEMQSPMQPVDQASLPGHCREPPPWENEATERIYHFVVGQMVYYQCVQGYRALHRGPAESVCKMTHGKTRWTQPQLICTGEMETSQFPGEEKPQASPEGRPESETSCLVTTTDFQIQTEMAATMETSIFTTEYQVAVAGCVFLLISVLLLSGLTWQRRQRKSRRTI

[2] = biological target: T2, CD25 protein (from Example 2); assay: ELISA on coated CD25
T2 chain: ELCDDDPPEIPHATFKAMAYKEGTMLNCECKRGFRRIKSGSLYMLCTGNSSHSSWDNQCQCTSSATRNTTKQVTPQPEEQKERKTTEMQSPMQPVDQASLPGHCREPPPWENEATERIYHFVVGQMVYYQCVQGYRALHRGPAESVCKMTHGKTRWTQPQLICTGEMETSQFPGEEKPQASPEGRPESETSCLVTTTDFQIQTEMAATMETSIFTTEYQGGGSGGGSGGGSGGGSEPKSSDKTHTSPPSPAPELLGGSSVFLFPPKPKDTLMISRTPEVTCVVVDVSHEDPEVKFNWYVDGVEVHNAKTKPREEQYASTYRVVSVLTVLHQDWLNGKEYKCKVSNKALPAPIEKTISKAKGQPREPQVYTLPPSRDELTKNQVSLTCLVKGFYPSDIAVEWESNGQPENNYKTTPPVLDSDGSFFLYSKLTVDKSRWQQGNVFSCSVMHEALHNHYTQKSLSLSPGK
Protocol: (§1) CD25 (from Example 2) was coated on a 96-well high adsorption microtiter plate (3590, Costar), washed and blocked. The sample to be tested was diluted to an appropriate concentration and added to wells.

[3] = biological target: T2, CD25 protein (from Example 2); assay: ELISA on coated CD25, sample at 0.04 ug/ml, relative to rhIL-2 = 100%
Protocol: as §1

[4] = biological target: T2, CD25 protein (from Example 2); assay: ELISA on coated CD25, sample at 1 ug/ml, relative to rhIL-2 = 100%
Protocol: as §1

[5] = biological target: T3, CD25 on the surface of CTLL-2 cells (mouse cytotoxic T lymphocyte cell line) (mouse, UniProt P01590 22-268); assay: cell-based or functional assay
T3 sequence (looked up): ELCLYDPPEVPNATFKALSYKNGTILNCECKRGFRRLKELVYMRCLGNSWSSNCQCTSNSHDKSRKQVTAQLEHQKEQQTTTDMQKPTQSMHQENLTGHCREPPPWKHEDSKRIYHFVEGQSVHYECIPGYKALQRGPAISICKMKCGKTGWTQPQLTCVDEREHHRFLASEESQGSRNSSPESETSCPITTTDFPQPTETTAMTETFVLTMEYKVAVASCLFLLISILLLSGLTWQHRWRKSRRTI

[6] = biological target: T2, CD25 protein (from Example 2); assay: ELISA on coated CD25, sample at 0.2 ug/ml, relative to rhIL-2 = 100%
Protocol: as §1

B1: IL-2gm6 (T3A, M39N, K49N, A73T, D109N), HIS tag (ligand)
chain: APASSSTKKTQLQLEHLLLDLQMILNGINNYKNPKLTRNLTFKFYMPKNATELKHLQCLEEELKPLEEVLNLTQSKNFHLRPRDLISNINVIVLELKGSETTFMCEYANETATIVEFLNRWITFAQSIISTLTHHHHHH
notes: Expressed in Expi293F cells; also called IL-2gm6-His
EC50 (nM), NK92 cell proliferation [1]: 7.08 nM | Potency relative to rhIL-2 (%), NK92 cell proliferation [1]: 0.027% | binding result [2]: no binding (tested: 1 ug/ml) | Binding activity (%) [3]: 1.36% | Binding activity (%) [4]: 0.88% | EC50 (nM), CTLL-2 cell proliferation [5]: 51.5 nM | Potency relative to rhIL-2 (%), CTLL-2 cell proliferation [5]: 0.006% | Binding activity (%) [6]: 1.08%

B2: IL-2gm12 (T3A, A73T, D109N), HIS tag (ligand)
chain: APASSSTKKTQLQLEHLLLDLQMILNGINNYKNPKLTRMLTFKFYMPKKATELKHLQCLEEELKPLEEVLNLTQSKNFHLRPRDLISNINVIVLELKGSETTFMCEYANETATIVEFLNRWITFAQSIISTLTHHHHHH
notes: Expressed in Expi293F cells; also called IL-2gm12-His
EC50 (nM), NK92 cell proliferation [1]: 0.296 nM | Potency relative to rhIL-2 (%), NK92 cell proliferation [1]: 0.653% | Binding activity (%) [3]: 1.97% | Binding activity (%) [4]: 2.77% | EC50 (nM), CTLL-2 cell proliferation [5]: 0.156 nM | Potency relative to rhIL-2 (%), CTLL-2 cell proliferation [5]: 1.86% | Binding activity (%) [6]: 1.48%

B3: IL-2gm1 (T3A, M39N), HIS tag (ligand)
chain: APASSSTKKTQLQLEHLLLDLQMILNGINNYKNPKLTRNLTFKFYMPKKATELKHLQCLEEELKPLEEVLNLAQSKNFHLRPRDLISNINVIVLELKGSETTFMCEYADETATIVEFLNRWITFAQSIISTLTHHHHHH
notes: Expressed in Expi293F cells with a leader peptide; M39N is meant to make an N-glycosylation site; also called IL-2gm1-His
EC50 (nM), NK92 cell proliferation [1]: 38.5 nM | Potency relative to rhIL-2 (%), NK92 cell proliferation [1]: 0.005% | binding result [2]: no binding (tested: 1 ug/ml) | Binding activity (%) [3]: 1.66% | Binding activity (%) [4]: 0.88% | EC50 (nM), CTLL-2 cell proliferation [5]: 83.4 nM | Potency relative to rhIL-2 (%), CTLL-2 cell proliferation [5]: 0.003% | Binding activity (%) [6]: 1.08%

B4: IL-2gm4 (T3A, K49N, A73T), HIS tag (ligand)
chain: APASSSTKKTQLQLEHLLLDLQMILNGINNYKNPKLTRMLTFKFYMPKNATELKHLQCLEEELKPLEEVLNLTQSKNFHLRPRDLISNINVIVLELKGSETTFMCEYADETATIVEFLNRWITFAQSIISTLTHHHHHH
notes: Expressed in Expi293F cells; also called IL-2gm4-His
EC50 (nM), NK92 cell proliferation [1]: 0.234 nM | Potency relative to rhIL-2 (%), NK92 cell proliferation [1]: 0.828% | Binding activity (%) [3]: 3.18% | Binding activity (%) [4]: 14.8% | EC50 (nM), CTLL-2 cell proliferation [5]: 0.0906 nM | Potency relative to rhIL-2 (%), CTLL-2 cell proliferation [5]: 3.2% | Binding activity (%) [6]: 7.5%

B5: IL-2gm11 (T3A, K49N, D109N), HIS tag (ligand)
chain: APASSSTKKTQLQLEHLLLDLQMILNGINNYKNPKLTRMLTFKFYMPKNATELKHLQCLEEELKPLEEVLNLAQSKNFHLRPRDLISNINVIVLELKGSETTFMCEYANETATIVEFLNRWITFAQSIISTLTHHHHHH
notes: Expressed in Expi293F cells; also called IL-2gm11-His
EC50 (nM), NK92 cell proliferation [1]: 0.28 nM | Potency relative to rhIL-2 (%), NK92 cell proliferation [1]: 0.69% | Binding activity (%) [3]: 2.42% | Binding activity (%) [4]: 12.5% | EC50 (nM), CTLL-2 cell proliferation [5]: 0.0349 nM | Potency relative to rhIL-2 (%), CTLL-2 cell proliferation [5]: 8.31% | Binding activity (%) [6]: 5.03%

B6: IL-2gm2 (T3A, K49N), HIS tag (ligand)
chain: APASSSTKKTQLQLEHLLLDLQMILNGINNYKNPKLTRMLTFKFYMPKNATELKHLQCLEEELKPLEEVLNLAQSKNFHLRPRDLISNINVIVLELKGSETTFMCEYADETATIVEFLNRWITFAQSIISTLTHHHHHH
notes: Expressed in Expi293F cells; also called IL-2gm2-His
EC50 (nM), NK92 cell proliferation [1]: 0.112 nM | Potency relative to rhIL-2 (%), NK92 cell proliferation [1]: 1.72% | Binding activity (%) [3]: 16.6% | Binding activity (%) [4]: 31% | EC50 (nM), CTLL-2 cell proliferation [5]: 0.0638 nM | Potency relative to rhIL-2 (%), CTLL-2 cell proliferation [5]: 4.55% | Binding activity (%) [6]: 31.3%

B7: IL-2gm3 (T3A, A73T) or (T3A, A73S), HIS tag (ligand)
chain: APASSSTKKTQLQLEHLLLDLQMILNGINNYKNPKLTRMLTFKFYMPKKATELKHLQCLEEELKPLEEVLNLTQSKNFHLRPRDLISNINVIVLELKGSETTFMCEYADETATIVEFLNRWITFAQSIISTLTHHHHHH
notes: also called IL-2gm3-His
EC50 (nM), NK92 cell proliferation [1]: 2.21 nM | Potency relative to rhIL-2 (%), NK92 cell proliferation [1]: 0.088% | Binding activity (%) [3]: 2.27% | Binding activity (%) [4]: 10.3% | EC50 (nM), CTLL-2 cell proliferation [5]: 0.165 nM | Potency relative to rhIL-2 (%), CTLL-2 cell proliferation [5]: 1.76% | Binding activity (%) [6]: 5.62%

B8: IL-2gm7 (T3A, D109N), HIS tag (ligand)
chain: APASSSTKKTQLQLEHLLLDLQMILNGINNYKNPKLTRMLTFKFYMPKKATELKHLQCLEEELKPLEEVLNLAQSKNFHLRPRDLISNINVIVLELKGSETTFMCEYANETATIVEFLNRWITFAQSIISTLTHHHHHH
notes: Expressed in Expi293F cells; also called IL-2gm7-His
EC50 (nM), NK92 cell proliferation [1]: 0.557 nM | Potency relative to rhIL-2 (%), NK92 cell proliferation [1]: 0.347% | Binding activity (%) [3]: 1.82% | Binding activity (%) [4]: 8.1% | EC50 (nM), CTLL-2 cell proliferation [5]: 0.365 nM | Potency relative to rhIL-2 (%), CTLL-2 cell proliferation [5]: 0.794% | Binding activity (%) [6]: 2.96%

B9: IL-2gm8 (T3A, M39N, K49N), HIS tag (ligand)
chain: APASSSTKKTQLQLEHLLLDLQMILNGINNYKNPKLTRNLTFKFYMPKNATELKHLQCLEEELKPLEEVLNLAQSKNFHLRPRDLISNINVIVLELKGSETTFMCEYADETATIVEFLNRWITFAQSIISTLTHHHHHH
notes: Expressed in Expi293F cells; also called IL-2gm8-His
EC50 (nM), NK92 cell proliferation [1]: 8.91 nM | Potency relative to rhIL-2 (%), NK92 cell proliferation [1]: 0.022% | binding result [2]: no binding (tested: 1 ug/ml) | Binding activity (%) [3]: 1.51% | Binding activity (%) [4]: 0.74% | EC50 (nM), CTLL-2 cell proliferation [5]: 8.84 nM | Potency relative to rhIL-2 (%), CTLL-2 cell proliferation [5]: 0.033% | Binding activity (%) [6]: 0.99%

B10: IL-2gm13 (T3A, K49N, A73T, D109N), HIS tag (ligand)
chain: APASSSTKKTQLQLEHLLLDLQMILNGINNYKNPKLTRMLTFKFYMPKNATELKHLQCLEEELKPLEEVLNLTQSKNFHLRPRDLISNINVIVLELKGSETTFMCEYANETATIVEFLNRWITFAQSIISTLTHHHHHH
notes: Expressed in Expi293F cells; also called IL-2gm13-His
EC50 (nM), NK92 cell proliferation [1]: 0.293 nM | Potency relative to rhIL-2 (%), NK92 cell proliferation [1]: 0.661% | Binding activity (%) [3]: 1.51% | Binding activity (%) [4]: 2.23% | EC50 (nM), CTLL-2 cell proliferation [5]: 0.144 nM | Potency relative to rhIL-2 (%), CTLL-2 cell proliferation [5]: 2.01% | Binding activity (%) [6]: 1.18%

B11: IL-2gm5 (T3A, M39N, K49N, A73T), HIS tag (ligand)
chain: APASSSTKKTQLQLEHLLLDLQMILNGINNYKNPKLTRNLTFKFYMPKNATELKHLQCLEEELKPLEEVLNLTQSKNFHLRPRDLISNINVIVLELKGSETTFMCEYADETATIVEFLNRWITFAQSIISTLTHHHHHH
notes: Expressed in Expi293F cells; also called IL-2gm5-His
EC50 (nM), NK92 cell proliferation [1]: 20.7 nM | Potency relative to rhIL-2 (%), NK92 cell proliferation [1]: 0.009% | binding result [2]: no binding (tested: 1 ug/ml) | Binding activity (%) [3]: 1.51% | Binding activity (%) [4]: 0.88% | EC50 (nM), CTLL-2 cell proliferation [5]: 8.22 nM | Potency relative to rhIL-2 (%), CTLL-2 cell proliferation [5]: 0.035% | Binding activity (%) [6]: 1.08%
